Paper PMC9993015
Like-named read-outs stand apart in the source and are kept apart here. Blank lines part the entries; values can stand above or below the substance they belong to.

Columns and labels:
[1] = biological target: histone H3 (Homo sapiens) (UniProt P68431); conditions: cited from earlier work
[2] = biological target: histone H4 (Homo sapiens) (UniProt P62805); conditions: cited from earlier work
[3] = biological target: histone H3 (Homo sapiens) (UniProt P68431); conditions: cited from earlier work; remark: listed apart in the source
[4] = biological target: histone H3 from calf thymus histones (UniProt P68432); test: GST pull-down, immunoblot with α-H3, band level printed under lane; conditions: calf thymus histones (CTH); CTH input 5%

Substance: EED WD40 (from UniProt O75530)
- Kd [1]: > 400 µM

Substance: 53BP1 tandem TUDOR domain (from UniProt Q12888)
- Kd [2]: 20 µM
- Kd [3]: 2000 µM

- response [4]: 0.3
Substance: GST-ING3PHD (PHD domain of the H3K4me3 reader ING3) W385A
